T1: human ICAM-3-Fc chimera (human, UniProt P32942 30-485, limits assumed)
T1 construct: Bought from R&D Systems; soluble immunoadhesin; also called hICAM3-Fc; hICAM-3-Fc; not shown: human IgG Fc (detected with anti-human IgG Fc antibody)
T1 sequence (looked up): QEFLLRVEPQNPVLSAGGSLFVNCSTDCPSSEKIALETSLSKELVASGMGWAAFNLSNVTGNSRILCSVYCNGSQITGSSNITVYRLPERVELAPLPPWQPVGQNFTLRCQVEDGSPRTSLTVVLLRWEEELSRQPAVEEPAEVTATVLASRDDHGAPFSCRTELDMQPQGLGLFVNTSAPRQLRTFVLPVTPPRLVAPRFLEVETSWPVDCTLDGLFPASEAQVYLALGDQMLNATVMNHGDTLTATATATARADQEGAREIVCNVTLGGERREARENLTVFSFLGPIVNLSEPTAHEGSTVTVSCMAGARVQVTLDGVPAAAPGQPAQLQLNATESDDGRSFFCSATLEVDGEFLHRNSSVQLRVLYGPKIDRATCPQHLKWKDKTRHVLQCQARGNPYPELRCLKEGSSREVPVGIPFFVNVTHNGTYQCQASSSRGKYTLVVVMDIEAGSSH

B1: porcine DC-SIGN (receptor)
chain: MAEICDPKEPEEKTWTGPVLVERDLGLLRRLRNSPGCLTWPLLLLLLFVSLGFFMLLVTTLVQVSRIHQSLQRERETSRRPTAQEKIQSSLDKFLQQMTWMNATLAGLCHPCPWHWEFFQGRCYLFSQTQSDWKSSLSACKDIGAQLVIINSTAEQKFLKSWYVRYNKATWIGLSDDTNEGSWQWVDNSPLQLSFWKEGEPNNHGDEDCAELHNDGWNDSKCTVENAWICEKPSSPCPML
notes: In the Western blot it stood in a cell lysate (band of about 48 kDa, probably glycosylated); also called pDC-SIGN; BHK-PDCS (BHK-21 cells stably expressing it)
B2: human DC-SIGN (receptor, UniProt Q9NNX6 1-404, looked up)
chain: MSDSKEPRLQQLGLLEEEQLRGLGFRQTRGYKSLAGCLGHGPLVLQLLSFTLLAGLLVQVSKVPSSISQEQSRQDAIYQNLTQLKAAVGELSEKSKLQEIYQELTQLKAAVGELPEKSKLQEIYQELTRLKAAVGELPEKSKLQEIYQELTWLKAAVGELPEKSKMQEIYQELTRLKAAVGELPEKSKQQEIYQELTRLKAAVGELPEKSKQQEIYQELTRLKAAVGELPEKSKQQEIYQELTQLKAAVERLCHPCPWEWTFFQGNCYFMSNSQRNWHDSITACKEVGAQLVVIKSAEEQNFLQLQSSRSNRFTWMGLSDLNQEGTWQWVDGSPLLPSFKQYWNRGEPNNVGEEDCAEFSGNGWNDDKCNLAKFWICKKSAASCSRDEEQFLSPAPATPNPPPA
notes: whole, on cells; Positive control cell line; also called hDC-SIGN; CD209
B3: human ICAM-2-Fc chimera (Fc fusion, UniProt P13598 25-223, looked up)
chain: KVFEVHVRPKKLAVEPKGSLEVNCSTTCNQPEVGGLETSLDKILLDEQAQWKHYLVSNISHDTVLQCHFTCSGKQESMNSNVSVYQPPRQVILTLQPTLVAVGKSFTIECRVPTVEPLDSLTLFLFRGNETLHYETFGKAAPAPQEATATFNSTADREDGHRNFSCLAVLDLMSRGGNIFHKHSAPKMLEIYEPVSDSQ
notes: Bought from R&D Systems; soluble immunoadhesin; also called hICAM2-Fc; hICAM-2-Fc; not shown: human IgG Fc (detected with anti-human IgG Fc antibody)

Experiments:
[1] = biological target: T2, recombinant human IgG1 Fc (human, UniProt P01857-1 100-330 = IgG part); experiment: flow cytometry on BHK-PDCS cells, FITC anti-human IgG Fc detection
T2 construct: domain: Fc; Negative control for the ICAM-Fc chimeras; also called hFc
Experimental: (§1) Human ICAM-3 and ICAM-2 binding assay: Adhesion of human ICAM-3 or ICAM-2 to pDC-SIGN proteins was assessed with BHK-PDCS and BHK-21 cells by measuring detectable cells that bound the soluble immunoadhesins through FACS analysis. 3T3-HDCS cells were used as the positive control. Cells (1˜3×10⁵ per sample) were resuspended in 100 μL PBS containing 2% FBS and incubated for 60 min at 4° C. with 1 μg of recombinant human IgG₁ Fc (hFc), human ICAM-3-Fc (hICAM3-Fc) chimera or hICAM2-Fc chimera (R&D Systems, Minneapolis, Minn.) in the presence or absence of mannan (100 μg/mL) or ethylene glycol tetraacetic acid (EGTA, 10 mM). Cells were then washed twice and incubated for another 45 min at 4° C. with 0.5 μg of FITC-labeled anti-human IgG Fc antibody (KPL, Inc., Gaithersburg, Md.) in 100 μL PBS containing 2% FBS. Fluorescence was monitored using FACSAria (BD Biosciences, San Jose, Calif.).

[2] = biological target: T1, human ICAM-3-Fc chimera; experiment: flow cytometry on BHK-PDCS cells, 1 ug Fc chimera, FITC anti-human IgG Fc
Excerpt: (§2) FIGS. 8a to 8e show the binding of human ICAM-3 and ICAM-2 immunoadhesins to BHK cells stably expressing pDC-SIGN. FIG. 8a provides the detection of surface expression of pDC-SIGN protein on stable BHK cell lines. BHK-21, and unsorted or sorted BHK-PDCS cell lines were stained with anti-pDC-SIGN antibody and FITC-labeled goat anti-rabbit IgG, respectively, and analyzed by flow cytometry. Dashed open histograms represented the background staining The expression of pDC-SIGN was indicated by the cross-hatched histograms. Expression of hDC-SIGN on the surface of 3T3-HDCS cell line was also verified by staining with a hDC-SIGN monoclonal antibody (right, bottom panel). FIGS. 8b to 8e illustrate the calcium-dependent binding of human ICAM-3 and ICAM-2 immunoadhesins to BHK-PDCS and 3T3-HDCS cells. Dashed open histograms represent cells staining only with a FITC labeled anti-human IgG Fc antibody. Results are representative of three independent experiments. Data are expressed as histogram analysis of 10,000 cells.
(§3) Human ICAM-3 and ICAM-2 binding assay: Adhesion of human ICAM-3 or ICAM-2 to pDC-SIGN proteins was assessed with BHK-PDCS and BHK-21 cells by measuring detectable cells that bound the soluble immunoadhesins through FACS analysis. 3T3-HDCS cells were used as the positive control. […] Fluorescence was monitored using FACSAria (BD Biosciences, San Jose, Calif.).

[3] = biological target: B3; experiment: as above
Excerpt: as §2, §3

[4] = biological target: T2, recombinant human IgG1 Fc; experiment: flow cytometry on 3T3-HDCS cells, FITC anti-human IgG Fc detection
Experimental: as §1

[5] = biological target: T1, human ICAM-3-Fc chimera; experiment: flow cytometry on 3T3-HDCS cells, 1 ug Fc chimera, FITC anti-human IgG Fc
Excerpt: as §2, §3

[6] = biological target: B2; experiment: flow cytometry histograms, FIGS. 8b-8e
Excerpt: as §2, §3

B1
binding result [1]: no binding (tested: 1 ug in 100 uL) | binding result [2]: binds | binding result [3]: binds

B2
binding result [4]: no binding (tested: 1 ug in 100 uL) | binding result [5]: binds

B3
binding result [6]: binds
